Common to all, as to assay type: biochemical
Substrate in series [1]: CC[C@H](C)[C@H](NC(=O)[C@H](CCC(=O)O)NC(=O)[C@H](Cc1c[nH]cn1)NC(=O)[C@H](Cc1c[nH]cn1)NC(=O)[C@H](C)NC(=O)[C@H](CCCNC(=N)N)NC(=O)CCCCCNC(=O)CCCC[C@@H]1SC[C@@H]2NC(=O)N[C@@H]21)C(=O)N[C@@H](Cc1ccc(O)cc1)C(=O)N[C@@H](Cc1c[nH]cn1)C(=O)N[C@@H](Cc1ccccc1)C(=O)N[C@@H](Cc1ccccc1)C(=O)N[C@@H](Cc1ccccc1)C(=O)N[C@@H](C)C(=O)N[C@@H](CCCCN)C(=O)N[C@@H](CCCCN)C(=O)N[C@@H](CCCCN)C(N)=O
The series is described as follows: Kinetic evaluation of peptide substrates, varying peptide at fixed ATP (phosphocellulose filter, [γ-33P]ATP). Particulars: other: ErbB-4; Km for peptide; ATP concentration >10 × Km (200 μM ATP); pH 7.5; 23.0 °C. How it is done:
(§1) Peptide sequences identified as preferred substrates for ErbB-2 using the methods described in Laboratory Example 3 were synthesized. The kcat and Km values for each peptide were determined as follows, using the kinases ErbB-2, ErbB-4, and EGFR.
(§2) Reactions were performed in 96-well polystyrene round bottom plates in a final volume of 45 μL. Reaction mixtures contained 50 mM MOPS, pH 7.5, 10 mM MnCl2, 1 mM dithiothreitol (DTT), 200 μM ATP, 1.0 μCi [γ-^33P] ATP, and varying concentrations of peptide. The reaction was initiated by adding the purified kinase of interest and halted after 10 minutes at 23° C. (room temperature) by adding 45 μL of 0.5% phosphoric acid in water. A 75 μL aliquot of the halted reaction mixture was then transferred to MAPH phosphocellulose filter plates (Millipore, Bedford, Mass.). The plates were filtered three times with 0.2 mL of 0.5 percent phosphoric acid. Scintillation cocktail (50 μL) was added to each well, and the plate was analyzed by counting in a Packard TOPCOUNT® scintillation counter (Packard Instrument Co., Meriden, Conn.). In these assays, the concentration of ATP was greater than ten-fold higher than the Km for ATP, which permitted the kinetic data to be treated as a pseudo-first-order reaction with varying peptide concentration. All experiments were performed in quadruplicate and the average value for each data point was analyzed. The Km and Vmax values were calculated by fitting the data to the Henri-Michaelis-Menten equation by non-linear regression using SIGMAPLOT® (SPSS Science, Chicago, Ill.). kcat values were calculated using the Vmax value, and are based on the protein concentration of the enzyme preparation and an estimate of purity determined from an evaluation of a Coomassie Blue stained SDS-polyacrylamide gel.

Substrate in series [2]: CC[C@H](C)[C@H](NC(=O)[C@H](Cc1ccccc1)NC(=O)[C@H](Cc1c[nH]cn1)NC(=O)[C@H](Cc1ccc(O)cc1)NC(=O)[C@H](CCC(=O)O)NC(=O)[C@H](CCC(=O)O)NC(=O)[C@H](CCC(=O)O)NC(=O)[C@H](Cc1c[nH]cn1)NC(=O)[C@H](C)NC(=O)[C@H](CCCNC(=N)N)NC(=O)CCCCCNC(=O)CCCC[C@@H]1SC[C@@H]2NC(=O)N[C@@H]21)C(=O)N[C@@H](Cc1ccccc1)C(=O)N[C@@H](C)C(=O)N[C@@H](CCCCN)C(=O)N[C@@H](CCCCN)C(=O)N[C@@H](CCCCN)C(N)=O
The description is as above. Particulars: other: ErbB-4; Km for peptide; ATP concentration >10 × Km (200 μM ATP); pH 7.5; 23.0 °C. On the procedure:
as §1, §2

Substrate in series [3]: CC[C@H](C)[C@H](NC(=O)[C@H](CCC(=O)O)NC(=O)[C@H](CCC(=O)O)NC(=O)[C@H](Cc1c[nH]cn1)NC(=O)[C@H](C)NC(=O)[C@H](CCCNC(=N)N)NC(=O)CCCCCNC(=O)CCCC[C@@H]1SC[C@@H]2NC(=O)N[C@@H]21)C(=O)N[C@@H](Cc1ccc(O)cc1)C(=O)N[C@@H](Cc1c[nH]cn1)C(=O)N[C@@H](Cc1ccccc1)C(=O)N[C@@H](Cc1ccccc1)C(=O)N[C@@H](Cc1ccccc1)C(=O)N[C@@H](C)C(=O)N[C@@H](CCCCN)C(=O)N[C@@H](CCCCN)C(=O)N[C@@H](CCCCN)C(N)=O
The description is as above. Particulars: other: ErbB-4; Km for peptide; ATP concentration >10 × Km (200 μM ATP); pH 7.5; 23.0 °C. How it is done:
as §1, §2

Substrate in series [4]: C[C@H](NC(=O)[C@H](CCCNC(=N)N)NC(=O)CCCCCNC(=O)CCCC[C@@H]1SC[C@@H]2NC(=O)N[C@@H]21)C(=O)N[C@@H](Cc1c[nH]cn1)C(=O)N[C@@H](CCC(=O)O)C(=O)N[C@@H](CCC(=O)O)C(=O)N[C@@H](CCC(=O)O)C(=O)N[C@@H](Cc1ccc(O)cc1)C(=O)N[C@@H](Cc1c[nH]cn1)C(=O)N[C@@H](Cc1ccccc1)C(=O)N[C@@H](Cc1ccccc1)C(=O)N[C@@H](Cc1ccccc1)C(=O)N[C@@H](C)C(=O)N[C@@H](CCCCN)C(=O)N[C@@H](CCCCN)C(=O)N[C@@H](CCCCN)C(N)=O
The series is described as above. The following applies: other: ErbB-4; Km for peptide; ATP concentration >10 × Km (200 μM ATP); pH 7.5; 23.0 °C. How it is done: as §1, §2

Substrate in series [5]: CC[C@H](C)[C@H](NC(=O)[C@H](CCC(=O)O)NC(=O)[C@H](CCC(=O)O)NC(=O)[C@H](Cc1c[nH]cn1)NC(=O)[C@H](C)NC(=O)[C@H](CCCNC(=N)N)NC(=O)CCCCCNC(=O)CCCC[C@@H]1SC[C@@H]2NC(=O)N[C@@H]21)C(=O)N[C@@H](Cc1ccc(O)cc1)C(=O)N[C@@H](Cc1c[nH]cn1)C(=O)N[C@@H](Cc1ccccc1)C(=O)N[C@@H](Cc1ccccc1)C(=O)N[C@@H](Cc1ccccc1)C(=O)N[C@@H](C)C(=O)N[C@@H](CCCCN)C(=O)N[C@@H](CCCCN)C(=O)N[C@@H](CCCCN)C(N)=O
The series is described as follows: Two-substrate kinetic comparison with known substrate, peptide and ATP varied simultaneously. The following applies: other: ErbB-4; peptide and ATP concentrations varied simultaneously, two-substrate fit. How it is done:
(§3) In a separate experiment, the kinetic parameters of both peptide number 1 shown in Table 2, and a peptide with the sequence Biotin-Ahx-G-G-M-E-D-I-Y-F-E-F-M-G-G-K-K-K-amide (SEQ ID NO: 17), which has been previously identified as an ErbB-2 substrate (Jan et. al., (2000), Biochemistry 39: 9786-803), were determined and compared. In this experiment, both peptide and ATP concentrations were varied, and the resulting data was simultaneously fit to an equation representing a two-substrate enzyme reaction using SIGMAPLOT®. Data was collected using the kinases ErbB-2, ErbB-4, and EGFR. The results of this experiment are shown in Table 3 and indicate that for all three kinases tested, peptide number 1 shown in Table 2 is kinetically at least equivalent (based on kcat/Km values) to the known peptide substrate identified by Jan et al.

Substrate in series [6]: CC[C@H](C)[C@H](NC(=O)[C@H](CC(=O)O)NC(=O)[C@H](CCC(=O)O)NC(=O)[C@H](CCSC)NC(=O)CNC(=O)CNC(=O)CCCCCNC(=O)CCCC[C@@H]1SC[C@@H]2NC(=O)N[C@@H]21)C(=O)N[C@@H](Cc1ccc(O)cc1)C(=O)N[C@@H](Cc1ccccc1)C(=O)N[C@@H](CCC(=O)O)C(=O)N[C@@H](Cc1ccccc1)C(=O)N[C@@H](CCSC)C(=O)NCC(=O)NCC(=O)N[C@@H](CCCCN)C(=O)N[C@@H](CCCCN)C(=O)N[C@@H](CCCCN)C(N)=O
Described as above. Particulars: other: ErbB-4; peptide and ATP concentrations varied simultaneously, two-substrate fit. On the procedure: as §3

As a reminder, the Km is the substrate concentration at which the rate is half of its maximum. Usually kcat stands for the number of substrate molecules converted per active site and unit of time at saturation. The kcat/Km is the second-order rate constant that governs catalysis at low substrate concentration.

B1: ErbB-4 (Homo sapiens) (protein)
chain: QSVCAGTENKLSSLSDLEQQYRALRKYYENCEVVMGNLEITSIEHNRDLSFLRSVREVTGYVLVALNQFRYLPLENLRIIRGTKLYEDRYALAIFLNYRKDGNFGLQELGLKNLTEILNGGVYVDQNKFLCYADTIHWQDIVRNPWPSNLTLVSTNGSSGCGRCHKSCTGRCWGPTENHCQTLTRTVCAEQCDGRCYGPYVSDCCHRECAGGCSGPKDTDCFACMNFNDSGACVTQCPQTFVYNPTTFQLEHNFNAKYTYGAFCVKKCPHNFVVDSSSCVRACPSSKMEVEENGIKMCKPCTDICPKACDGIGTGSLMSAQTVDSSNIDKFINCTKINGNLIFLVTGIHGDPYNAIEAIDPEKLNVFRTVREITGFLNIQSWPPNMTDFSVFSNLVTIGGRVLYSGLSLLILKQQGITSLQFQSLKEISAGNIYITDNSNLCYYHTINWTTLFSTINQRIVIRDNRKAENCTAEGMVCNHLCSSDGCWGPGPDQCLSCRRFSRGRICIESCNLYDGEFREFENGSICVECDPQCEKMEDGLLTCHGPGPDNCTKCSHFKDGPNCVEKCPDGLQGANSFIFKYADPDRECHPCHPNCTQGCNGPTSHDCIYYPWTGHSTLPQHARTPLIAAGVIGGLFILVIVGLTFAVYVRRKSIKKKRALRRFLETELVEPLTPSGTAPNQAQLRILKETELKRVKVLGSGAFGTVYKGIWVPEGETVKIPVAIKILNETTGPKANVEFMDEALIMASMDHPHLVRLLGVCLSPTIQLVTQLMPHGCLLEYVHEHKDNIGSQLLLNWCVQIAKGMMYLEERRLVHRDLAARNVLVKSPNHVKITDFGLARLLEGDEKEYNADGGKMPIKWMALECIHYRKFTHQSDVWSYGVTIWELMTFGGKPYDGIPTREIPDLLEKGERLPQPPICTIDVYMVMVKCWMIDADSRPKFKELAAEFSRMARDPQRYLVIQGDDRMKLPSPNDSKFFQNLLDEEDLEDMMDAEEYLVPQAFNIPPPIYTSRARIDSNRSEIGHSPPPAYTPMSGNQFVYRDGGFAAEQGVSVPYRAPTSTIPEAPVAQGATAEIFDDSCCNGTLRKPVAPHVQEDSSTQRYSADPTVFAPERSPRGELDEEGYMTPMRDKPKQEYLNPVEENPFVSRRKNGDLQALDNPEYHNASNGPPKAEDEYVNEPLYLNTFANTLGKAEYLKNNILSMPEKAKKAFDNPDYWNHSLPPRSTLQHPDYLQEYSTKYFYKQNGRIRPIVAENPEYLSEFSLKPGTVLPPPPYRHRNTVV
B1: the Michaelis-Menten constant (Km) in series [1] came out at 37.6 µM; in series [2], 12.5 µM; in series [3], 8 µM; in series [4], 6 µM; in series [5], 41 µM; in series [6], 144 µM. Also, the kcat in series [1] was 0.0767 s⁻¹; in series [2], 0.0217 s⁻¹; in series [3] it was 0.0683 s⁻¹; in series [4], 0.015 s⁻¹; in series [5] it was 0.105 s⁻¹; in series [6], 0.0767 s⁻¹. Further, the kcat/Km in series [1] came out at 2000 M⁻¹ s⁻¹; in series [2] it was 1670 M⁻¹ s⁻¹; in series [3], 8500 M⁻¹ s⁻¹; in series [4], 2500 M⁻¹ s⁻¹; in series [5] it was 2500 M⁻¹ s⁻¹; in series [6], 533 M⁻¹ s⁻¹.

Values taken from patent US20030113711A1, “Protein kinase peptide substrate determination using peptide libraries” (priority 2001, published 2003).
